Patent US12116424 (WISCONSIN ALUMNI RESEARCH FOUNDATION, dated 2024)
Where two headings read alike, the source gives them in different places. Bridges are numbered along the chain shown (N, C = ends). Where no end group is shown, it is not given here. [ ]: non-standard residue; d: D form.

B1: 13-mer (peptide)
peptide: ADSSMSKACFMFV
modifications: not fully specified; thiolactone ring Cys9-Val13 (Cys side chain to C-terminal carboxyl)
B2: Se AIP-I D1AS6A (peptide)
peptide: ASVCAAYF
modifications: not fully specified; thiolactone ring Cys4-Phe8 (Cys side chain to C-terminal carboxyl)
B3: Se AIP-I (peptide)
peptide: DSVCASYF
modifications: not fully specified; thiolactone ring Cys4-Phe8 (Cys side chain to C-terminal carboxyl)
B4: 14-mer (peptide)
peptide: VADSSMSKACFMFV
modifications: not fully specified; thiolactone ring Cys10-Val14 (Cys side chain to C-terminal carboxyl)
B5: Sa AIP-I (peptide)
peptide: YSTCDFIM
modifications: not fully specified; thiolactone ring Cys4-Met8 (Cys side chain to C-terminal carboxyl)
B6: 15-mer (peptide)
peptide: KVADSSMSKACFMFV
modifications: not fully specified; thiolactone ring Cys11-Val15 (Cys side chain to C-terminal carboxyl)
B7: 8-mer (peptide)
peptide: SKACFMFV
modifications: not fully specified; thiolactone ring Cys4-Val8 (Cys side chain to C-terminal carboxyl)
B8: 11-mer (peptide)
peptide: SSMSKACFMFV
modifications: not fully specified; thiolactone ring Cys7-Val11 (Cys side chain to C-terminal carboxyl)
B9: 10-mer (peptide)
peptide: SMSKACFMFV
modifications: not fully specified; thiolactone ring Cys6-Val10 (Cys side chain to C-terminal carboxyl)
B10: 9-mer (peptide)
peptide: MSKACFMFV
modifications: not fully specified; thiolactone ring Cys5-Val9 (Cys side chain to C-terminal carboxyl)
B11: Sa AIP-II (peptide)
peptide: GVNACSSLF
modifications: not fully specified; thiolactone ring Cys5-Phe9 (Cys side chain to C-terminal carboxyl)
B12: Sa AIP-IV (peptide)
peptide: YSTCYFIM
modifications: not fully specified; thiolactone ring Cys4-Met8 (Cys side chain to C-terminal carboxyl)
B13: Se AIP-I D1AV3AS6A (peptide)
peptide: ASACAAYF
modifications: not fully specified; thiolactone ring Cys4-Phe8 (Cys side chain to C-terminal carboxyl)
B14: Se AIP-II (peptide)
peptide: NASKYNPCSNYL
modifications: not fully specified; thiolactone ring Cys8-Leu12 (Cys side chain to C-terminal carboxyl)
B15: 12-mer (peptide)
peptide: DSSMSKACFMFV
modifications: not fully specified; thiolactone ring Cys8-Val12 (Cys side chain to C-terminal carboxyl)

Tests used:
Assay in all cases: cell-based or functional assay
L. monocytogenes AgrC [1] = target: T1, L. monocytogenes AgrC (Listeria monocytogenes (EGD-e))
L. monocytogenes AgrC [2] = target: T1, L. monocytogenes AgrC; remark: listed apart in the source
L. monocytogenes AgrC [3] = target: T1, L. monocytogenes AgrC; remark: listed apart in the source

| Binder | EC50 (agr-GFP reporter, ΔagrD strain) (L. monocytogenes AgrC [1]) | Max Activation (agr-GFP reporter, ΔagrD strain) (L. monocytogenes AgrC [1]) | Max Inhibition (agr-GFP reporter, wild-type strain) (L. monocytogenes AgrC [1]) | Max Activation (agr-GFP reporter, ΔagrD strain) (L. monocytogenes AgrC [2]) | Max Inhibition (agr-GFP reporter, wild-type strain) (L. monocytogenes AgrC [2]) | other results |
| --- | --- | --- | --- | --- | --- | --- |
| B1 | 0.029 µM | 108% | 0% | – | – | – |
| B2 | – | – | – | 12.4% | 0% | – |
| INCDFLL (bridge 3-C; also: thiolactone: Cys3 side chain to C-terminal carboxyl) [Sa AIP-III] | – | – | – | 11.3% | 0.64% | – |
| B3 | – | – | – | 8.65% | 0% | – |
| B4 | 0.0399 µM | 105% | 0% | – | – | – |
| B5 | – | – | – | 12.2% | 1.29% | – |
| INCAFLL (bridge 3-C; also: thiolactone: Cys3 side chain to C-terminal carboxyl) [Sa AIP-III D4A] | – | – | – | 12.3% | 5.87% | – |
| B6 | 0.0222 µM | 122% | 0.23% | – | – | – |
| KA[dC]F[dM]FV (bridge 3-C; also: thiolactone: dCys3 side chain to C-terminal carboxyl) [7-mer C3dC/M5dM] | – | – | – | – | – | IC50 (agr-GFP reporter, wild-type strain) (L. monocytogenes AgrC [3]): 1.29 µM; Max Activation Observed (agr-GFP reporter, ΔagrD strain) (L. monocytogenes AgrC [3]): 7.89%; Max Inhibition Observed (agr-GFP reporter, wild-type strain) (L. monocytogenes AgrC [3]): 88.9% |
| KA[dC]FMFV (bridge 3-C; also: thiolactone: dCys3 side chain to C-terminal carboxyl) [7-mer C3dC] | – | – | – | – | – | IC50 (agr-GFP reporter, wild-type strain) (L. monocytogenes AgrC [3]): 3.8 µM; Max Activation Observed (agr-GFP reporter, ΔagrD strain) (L. monocytogenes AgrC [3]): 7.08%; Max Inhibition Observed (agr-GFP reporter, wild-type strain) (L. monocytogenes AgrC [3]): 49.3% |
| KACFMFV (bridge 3-C; also: thiolactone: Cys3 side chain to C-terminal carboxyl) [7-mer, K-A-(C-F-M-F-V)] | 0.0617 µM | 64.6% | 38.3% | – | – | IC50 (agr-GFP reporter, wild-type strain) (L. monocytogenes AgrC [1]): 0.866 µM |
| B7 | 0.0686 µM | 71.5% | 29.4% | – | – | IC50 (agr-GFP reporter, wild-type strain) (L. monocytogenes AgrC [1]): 0.842 µM |
| B8 | 0.0143 µM | 111% | 3.9% | – | – | – |
| B9 | 0.0215 µM | 110% | 0% | – | – | – |
| B10 | 0.0235 µM | 93.6% | 8.89% | – | – | IC50 (agr-GFP reporter, wild-type strain) (L. monocytogenes AgrC [1]): 0.416 µM |
| B11 | – | – | – | 12% | 0% | – |
| NAAKYNPCASYL (bridge 8-C) [Se AIP-III] | – | – | – | 8.73% | 0% | – |
| KACF[dM]FV (bridge 3-C; also: thiolactone: Cys3 side chain to C-terminal carboxyl) [7-mer M5dM] | – | – | – | – | – | EC50 (agr-GFP reporter, ΔagrD strain) (L. monocytogenes AgrC [3]): 0.00829 µM; Max Activation Observed (agr-GFP reporter, ΔagrD strain) (L. monocytogenes AgrC [3]): 71.9%; Max Inhibition Observed (agr-GFP reporter, wild-type strain) (L. monocytogenes AgrC [3]): 18.5% |
| KKCFMFV (bridge 3-C; also: thiolactone: Cys3 side chain to C-terminal carboxyl) [7-mer A2K] | – | – | – | – | – | EC50 (agr-GFP reporter, ΔagrD strain) (L. monocytogenes AgrC [3]): 0.185 µM; IC50 (agr-GFP reporter, wild-type strain) (L. monocytogenes AgrC [3]): 0.359 µM; Max Activation Observed (agr-GFP reporter, ΔagrD strain) (L. monocytogenes AgrC [3]): 64.8%; Max Inhibition Observed (agr-GFP reporter, wild-type strain) (L. monocytogenes AgrC [3]): 51.8% |
| B12 | – | – | – | 9.81% | 8.56% | – |
| B13 | – | – | – | 12.1% | 0.06% | – |
| B14 | – | – | – | 8.45% | 0% | – |
| B15 | 0.0434 µM | 116% | 0.26% | – | – | – |
